Measurements reported in patent US20220185894A1 (F STAR THERAPEUTICS, published 2022).

T1: mouse LAG-3 expressed on cells (mouse, UniProt Q61790 24-521)
T1 construct: also called mLAG-3; murine LAG-3 HEK
T1 sequence: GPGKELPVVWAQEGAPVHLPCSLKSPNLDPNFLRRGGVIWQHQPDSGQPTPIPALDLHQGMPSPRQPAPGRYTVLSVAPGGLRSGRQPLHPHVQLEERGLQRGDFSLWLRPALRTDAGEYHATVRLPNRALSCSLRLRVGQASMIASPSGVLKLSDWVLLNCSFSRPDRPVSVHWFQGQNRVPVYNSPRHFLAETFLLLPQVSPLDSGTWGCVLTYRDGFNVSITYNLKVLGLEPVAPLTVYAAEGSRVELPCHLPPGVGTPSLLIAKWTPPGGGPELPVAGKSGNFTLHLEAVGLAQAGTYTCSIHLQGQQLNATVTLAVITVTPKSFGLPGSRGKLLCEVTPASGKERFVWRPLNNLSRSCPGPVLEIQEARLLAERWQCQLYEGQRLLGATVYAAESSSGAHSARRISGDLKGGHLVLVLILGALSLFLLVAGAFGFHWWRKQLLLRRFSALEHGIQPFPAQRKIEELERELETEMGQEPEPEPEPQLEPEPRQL

T2: cynomolgus LAG-3 expressed on cells (cynomolgus monkey, UniProt P18627 24-525 (human entry))
T2 construct: also called cLAG-3; cyno LAG-3
T2 chain: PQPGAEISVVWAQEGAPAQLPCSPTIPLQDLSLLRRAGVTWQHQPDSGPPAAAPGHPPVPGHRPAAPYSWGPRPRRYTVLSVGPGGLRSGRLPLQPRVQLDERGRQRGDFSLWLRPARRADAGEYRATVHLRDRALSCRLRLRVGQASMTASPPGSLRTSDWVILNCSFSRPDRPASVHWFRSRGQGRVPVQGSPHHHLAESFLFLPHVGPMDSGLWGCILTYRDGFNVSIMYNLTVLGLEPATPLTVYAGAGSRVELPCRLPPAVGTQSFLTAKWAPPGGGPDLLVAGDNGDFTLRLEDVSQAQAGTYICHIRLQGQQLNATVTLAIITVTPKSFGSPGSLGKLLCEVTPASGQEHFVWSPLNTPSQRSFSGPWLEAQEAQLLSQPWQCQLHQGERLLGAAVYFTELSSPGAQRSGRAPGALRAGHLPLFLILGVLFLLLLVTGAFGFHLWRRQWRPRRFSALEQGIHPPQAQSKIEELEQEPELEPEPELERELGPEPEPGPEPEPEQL

T3: human FcγRIIa (R&D Systems, 1330-CD) (human, UniProt P12318 36-218, limits assumed)
T3 construct: Bought recombinant protein
T3 sequence (looked up): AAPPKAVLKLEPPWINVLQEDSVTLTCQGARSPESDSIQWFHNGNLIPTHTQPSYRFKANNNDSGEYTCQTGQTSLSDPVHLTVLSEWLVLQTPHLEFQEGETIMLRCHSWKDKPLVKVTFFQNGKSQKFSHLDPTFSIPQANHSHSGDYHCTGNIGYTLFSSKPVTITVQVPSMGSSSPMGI

T4: human FcγRIIb/c (R&D Systems, 1875-CD) (human, UniProt P31994 46-217)
T4 construct: Bought recombinant protein
T4 sequence (looked up): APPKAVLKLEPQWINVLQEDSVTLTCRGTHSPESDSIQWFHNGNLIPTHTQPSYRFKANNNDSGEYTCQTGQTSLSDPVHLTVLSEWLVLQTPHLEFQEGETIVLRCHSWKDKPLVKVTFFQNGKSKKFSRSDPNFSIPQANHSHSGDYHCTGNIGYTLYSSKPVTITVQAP


Legend:
[1] = target: T1, mouse LAG-3 expressed on cells; experiment: flow cytometry on HEK cells expressing mouse LAG-3
Description: HEK cells expressing mLAG-3 grown in DMEM (Life Technologies, 61965-026) containing 10% FBS (Life Technologies, 10270-1-6), 100 μg/ml Hygromycin B (Melford Laboratories Ltd, Z2475), 15 μg/ml Blasticidin (Melford Laboratories Ltd, B1105) and 1 μg/ml Doxycyclin (Sigma, D9891) were detached from tissue culture flasks using cell dissociation buffer (Life Technologies, 13151-014). Cells were collected by centrifuged at 1500 rpm for 3 min at 4° C. to pellet the cells and then resuspended in 1×DPBS then seeded in V-bottom 96-well plates (Costar, 3897) at 1.2×10⁵ cells/well in 30 μl. A 1:1 volume of a dilution series of the mAb² (or control mAb) was added and incubated with the cells for 1 h at 4° C. The plates were washed and secondary antibody (Anti-human Fc-488, Jackson ImmunoResearch, 109-546-098) was diluted 1:1000 in PBS and 60 μl was added to the cells for 30 min at 4° C. (plates were kept in the dark). The plates were then washed and the cells resuspended in 60 μl PBS containing 1 μg/ml DAPI (Biotium, 40043). The plates were read using Canto II flow cytometer (BD Bioscience). Dead cells were excluded and the fluorescence in the FITC channel (488 nm/530/30) was measured. The data was fitted using log (agonist) vs response in GraphPad Prism Software.

[2] = target: T2, cynomolgus LAG-3 expressed on cells; experiment: flow cytometry on DO11.10 cells expressing cynomolgus LAG-3
Description: DO11.10:LAG-3 cell suspensions were prepared in PBS+2% BSA (Sigma, A7906) and seeded at […] with 50 μl/well in V-bottomed 96-well plates (Costar, 3897). […] The plates were washed and 100 μl/well of secondary antibody (anti-human Fc-488 antibody, Jackson ImmunoResearch, 109-546-098) diluted 1:1000 in PBS+2% BSA was then added and incubated for 30 mins at 4° C. in the dark. The plates were washed and resuspended in 100 μl of PBS containing DAPI (Biotium, 40043) at […]. The plates were read using Canto II flow cytometer (BD Bioscience). The dead cells were excluded and the fluorescence in the FITC channel (488 nm/530/30) was measured. The data was fit using log (agonist) vs response in GraphPad Prism Software.

[3] = target: T5, human FcγRIIIa (R&D Systems, 4325-FC) (human, UniProt P08637 17-208); experiment: SPR, Biacore T200; FcγR immobilised, 200 µg/ml injected
T5 construct: Bought recombinant protein
T5 sequence (P08637 17-208 limits assumed): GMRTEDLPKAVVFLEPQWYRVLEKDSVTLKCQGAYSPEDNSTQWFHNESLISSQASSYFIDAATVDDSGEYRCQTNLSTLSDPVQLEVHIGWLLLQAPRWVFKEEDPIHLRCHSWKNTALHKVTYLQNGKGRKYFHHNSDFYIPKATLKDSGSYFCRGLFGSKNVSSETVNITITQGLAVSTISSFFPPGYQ
Description: (§1) The introduction of the LALA mutation in the CH2 domain of human IgG1 is known to reduce Fc γ receptor binding (Bruhns, P., et al. (2009); and Xu, D. et al. (2000)). […] The human FcγR binding assay was performed on a Biacore T200 instrument (GE Healthcare) using the Fcabs in the mock mAb² format. […] For each immobilized chip a flow cell was left blank for background subtraction. FcγR were immobilized using a concentration of 5 μg/ml in sodium acetate pH5 (ForteBio, 18-1069) and injected at a flow rate of 10 μl/min in 15 second cycles until the required immobilization level was reached.
(§2) The flow cells were regenerated by injecting 10 mM sodium hydroxide (VWR, 28244.262) at a flow rate of 100 μl/min for 30 seconds. The data analysis was performed with BiaEvaluation software version 3.2 RC1 by double referencing against the blank flow cell (without immobilized FcγR) and subtracting a buffer cycle from test mAb².

[4] = target: T6, human FcγRI (R&D Systems, 1257-FC) (human, UniProt P12314 16-288); experiment: as above
T6 construct: Bought recombinant protein
T6 sequence (P12314 16-288 limits assumed): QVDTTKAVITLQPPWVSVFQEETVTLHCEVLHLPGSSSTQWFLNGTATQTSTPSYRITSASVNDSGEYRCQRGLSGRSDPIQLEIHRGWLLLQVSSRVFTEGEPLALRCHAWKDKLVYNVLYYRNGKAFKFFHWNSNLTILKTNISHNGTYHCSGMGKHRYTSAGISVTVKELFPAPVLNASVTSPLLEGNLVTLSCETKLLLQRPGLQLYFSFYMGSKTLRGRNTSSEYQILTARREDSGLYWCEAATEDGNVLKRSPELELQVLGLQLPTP
Description: as §1, §2

[5] = target: T3, human FcγRIIa (R&D Systems, 1330-CD); experiment: SPR, Biacore T200; FcγR immobilised, 500 µg/ml injected
Description: as §1, §2

[6] = target: T4, human FcγRIIb/c (R&D Systems, 1875-CD); experiment: as above
Description: as §1, §2

| binding result [1] | EC50 [2] [pM] | binding response at end of association (RU) [3] [RU] | binding response at end of association (RU) [4] [RU] | binding response at end of association (RU) [5] [RU] | binding response at end of association (RU) [6] [RU] | EC50 [1] [pM] | Binder |
| --- | --- | --- | --- | --- | --- | --- | --- |
| no binding | – | – | – | – | – | – | control anti-human LAG-3 mAb 25F7 (antibody, human IgG1, kappa, L234A L235A, V domains shown, also called benchmark anti-human LAG-3 mAb) VH: QVQLQQWGAGLLKPSETLSLTCAVYGGSFSDYYWNWIRQPPGKGLEWIGEINHRGSTNSNPSLKSRVTLSLDTSKNQFSLKLRSVTAADTAVYYCAFGYSDYEYNWFDPWGQGTLVTVSS VL: EIVLTQSPATLSLSPGERATLSCRASQSISSYLAWYQQKPGQAPRLLIYDASNRATGIPARFSGSGSGTDFTLTISSLEPEDFAVYYCQQRSNWPLTFGQGTNLEIKR |
| – | 600 | 6.6 | 1.4 | -9.8 | -8.5 | 19000 | anti-human LAG-3/FITC mock mAb2 FS18-7-9/4420 comprising LALA mutation (bispecific antibody, human IgG1, kappa, L234A L235A, Human IgG1 format; also called FS18-7-9/4420LALA; FS18-7-09/4420LALA) heavy: EVKLDETGGGLVQPGRPMKLSCVASGFTFSDYWMNWVRQSPEKGLEWVAQIRNKPYNYETYYSDSVKGRFTISRDDSKSSVYLQMNNLRVEDMGIYYCTGSYYGMDYWGQGTSVTVSSASTKGPSVFPLAPSSKSTSGGTAALGCLVKDYFPEPVTVSWNSGALTSGVHTFPAVLQSSGLYSLSSVVTVPSSSLGTQTYICNVNHKPSNTKVDKKVEPKSCDKTHTCPPCPAPEAAGGPSVFLFPPKPKDTLMISRTPEVTCVVVDVSHEDPEVKFNWYVDGVEVHNAKTKPREEQYNSTYRVVSVLTVLHQDWLNGKEYKCKVSNKALPAPIEKTISKAKGQPREPQVYTLPPSWDEPWGEDVSLTCLVKGFYPSDIAVEWESNGQPENNYKTTPPVLDSDGSFFLYSKLTVPYDRWVWPDEFSCSVMHEALHNHYTQKSLSLSPG light: DVVMTQTPLSLPVSLGDQASISCRSSQSLVHSNGNTYLRWYLQKPGQSPKVLIYKVSNRFSGVPDRFSGSGSGTDFTLKISRVEAEDLGVYFCSQSTHVPWTFGGGTKLEIKRTVAAPSVFIFPPSDEQLKSGTASVVCLLNNFYPREAKVQWKVDNALQSGNSQESVTEQDSKDSTYSLSSTLTLSKADYEKHKVYACEVTHQGLSSPVTKSFNRGEC |
| – | 500 | – | -0.3 | -10.7 | -9.2 | – | anti-human LAG-3/FITC mock mAb2 FS18-7-78/4420 comprising LALA mutation (bispecific antibody, human IgG1, kappa, L234A L235A, also called FS18-7-78/4420LALA; FS18-7-78 in mock mAb2 format) heavy: EVKLDETGGGLVQPGRPMKLSCVASGFTFSDYWMNWVRQSPEKGLEWVAQIRNKPYNYETYYSDSVKGRFTISRDDSKSSVYLQMNNLRVEDMGIYYCTGSYYGMDYWGQGTSVTVSSASTKGPSVFPLAPSSKSTSGGTAALGCLVKDYFPEPVTVSWNSGALTSGVHTFPAVLQSSGLYSLSSVVTVPSSSLGTQTYICNVNHKPSNTKVDKKVEPKSCDKTHTCPPCPAPEAAGGPSVFLFPPKPKDTLMISRTPEVTCVVVDVSHEDPEVKFNWYVDGVEVHNAKTKPREEQYNSTYRVVSVLTVLHQDWLNGKEYKCKVSNKALPAPIEKTISKAKGQPREPQVYTLPPSWDEPWGEDVSLTCLVKGFYPSDIAVEWESNGYKEENYKTTPPVLDSDGSFFLYSKLTVPYDRWVWPDEFSCSVMHEALHNHYTQKSLSLSPG light: DVVMTQTPLSLPVSLGDQASISCRSSQSLVHSNGNTYLRWYLQKPGQSPKVLIYKVSNRFSGVPDRFSGSGSGTDFTLKISRVEAEDLGVYFCSQSTHVPWTFGGGTKLEIKRTVAAPSVFIFPPSDEQLKSGTASVVCLLNNFYPREAKVQWKVDNALQSGNSQESVTEQDSKDSTYSLSSTLTLSKADYEKHKVYACEVTHQGLSSPVTKSFNRGEC |
| – | 500 | 0.7 | -0.9 | -10 | -8.5 | – | anti-human LAG-3/FITC mock mAb2 FS18-7-62/4420 comprising LALA mutation (bispecific antibody, human IgG1, kappa, L234A L235A, also called FS18-7-62/4420LALA; FS18-7-62 in mock mAb2 format) heavy: EVKLDETGGGLVQPGRPMKLSCVASGFTFSDYWMNWVRQSPEKGLEWVAQIRNKPYNYETYYSDSVKGRFTISRDDSKSSVYLQMNNLRVEDMGIYYCTGSYYGMDYWGQGTSVTVSSASTKGPSVFPLAPSSKSTSGGTAALGCLVKDYFPEPVTVSWNSGALTSGVHTFPAVLQSSGLYSLSSVVTVPSSSLGTQTYICNVNHKPSNTKVDKKVEPKSCDKTHTCPPCPAPEAAGGPSVFLFPPKPKDTLMISRTPEVTCVVVDVSHEDPEVKFNWYVDGVEVHNAKTKPREEQYNSTYRVVSVLTVLHQDWLNGKEYKCKVSNKALPAPIEKTISKAKGQPREPQVYTLPPSWDEPWGEDVSLTCLVKGFYPSDIAVEWESNGIPEWNYKTTPPVLDSDGSFFLYSKLTVPYDRWVWPDEFSCSVMHEALHNHYTQKSLSLSPG light: DVVMTQTPLSLPVSLGDQASISCRSSQSLVHSNGNTYLRWYLQKPGQSPKVLIYKVSNRFSGVPDRFSGSGSGTDFTLKISRVEAEDLGVYFCSQSTHVPWTFGGGTKLEIKRTVAAPSVFIFPPSDEQLKSGTASVVCLLNNFYPREAKVQWKVDNALQSGNSQESVTEQDSKDSTYSLSSTLTLSKADYEKHKVYACEVTHQGLSSPVTKSFNRGEC |
